Test results reported in patent US20140274782A1, “AFFINITY REAGENTS AND METHODS FOR DETECTION, PURIFICATION, AND PROTEOMIC ANALYSIS OF METHYLATED PROTEINS” (The Board of Trustees of the Leland Stanford Junior …, priority 2013, published 2014).

T1: G9a and GLP (Homo sapiens, UniProt Q96KQ7+Q9H9B1)
T1 sequence (Q96KQ7 2-1210 limits assumed): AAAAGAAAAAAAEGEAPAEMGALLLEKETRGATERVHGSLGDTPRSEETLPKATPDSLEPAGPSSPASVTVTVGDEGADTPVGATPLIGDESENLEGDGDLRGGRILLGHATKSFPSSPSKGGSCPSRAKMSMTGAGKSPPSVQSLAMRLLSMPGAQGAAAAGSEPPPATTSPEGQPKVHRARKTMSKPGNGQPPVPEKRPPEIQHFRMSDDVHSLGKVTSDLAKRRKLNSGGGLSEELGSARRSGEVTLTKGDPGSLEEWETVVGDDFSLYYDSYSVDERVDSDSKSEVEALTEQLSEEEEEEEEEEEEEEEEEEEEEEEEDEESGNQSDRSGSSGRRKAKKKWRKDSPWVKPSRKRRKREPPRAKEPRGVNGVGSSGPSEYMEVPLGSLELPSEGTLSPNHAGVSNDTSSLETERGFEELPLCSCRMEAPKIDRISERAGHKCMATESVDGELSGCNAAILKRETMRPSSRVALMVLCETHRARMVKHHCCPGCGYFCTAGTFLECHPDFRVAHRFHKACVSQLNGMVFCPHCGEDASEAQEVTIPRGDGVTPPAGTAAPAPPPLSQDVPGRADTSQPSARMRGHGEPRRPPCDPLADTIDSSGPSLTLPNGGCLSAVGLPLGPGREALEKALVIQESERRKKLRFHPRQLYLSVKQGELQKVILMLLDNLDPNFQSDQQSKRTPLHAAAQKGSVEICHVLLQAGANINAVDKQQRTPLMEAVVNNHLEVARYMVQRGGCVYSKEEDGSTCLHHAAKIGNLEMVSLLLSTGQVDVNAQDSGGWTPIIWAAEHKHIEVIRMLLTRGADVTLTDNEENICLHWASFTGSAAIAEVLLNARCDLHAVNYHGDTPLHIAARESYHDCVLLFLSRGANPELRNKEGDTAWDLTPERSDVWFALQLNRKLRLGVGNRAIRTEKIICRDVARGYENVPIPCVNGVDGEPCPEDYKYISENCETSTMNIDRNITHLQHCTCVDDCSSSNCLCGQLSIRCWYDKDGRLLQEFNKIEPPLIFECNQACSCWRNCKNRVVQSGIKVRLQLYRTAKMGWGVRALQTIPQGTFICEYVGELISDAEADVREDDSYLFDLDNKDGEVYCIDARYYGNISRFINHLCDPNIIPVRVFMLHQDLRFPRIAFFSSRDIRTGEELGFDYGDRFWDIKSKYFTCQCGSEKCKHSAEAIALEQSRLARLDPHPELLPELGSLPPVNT
T1 sequence (Q9H9B1 2-1298 limits assumed): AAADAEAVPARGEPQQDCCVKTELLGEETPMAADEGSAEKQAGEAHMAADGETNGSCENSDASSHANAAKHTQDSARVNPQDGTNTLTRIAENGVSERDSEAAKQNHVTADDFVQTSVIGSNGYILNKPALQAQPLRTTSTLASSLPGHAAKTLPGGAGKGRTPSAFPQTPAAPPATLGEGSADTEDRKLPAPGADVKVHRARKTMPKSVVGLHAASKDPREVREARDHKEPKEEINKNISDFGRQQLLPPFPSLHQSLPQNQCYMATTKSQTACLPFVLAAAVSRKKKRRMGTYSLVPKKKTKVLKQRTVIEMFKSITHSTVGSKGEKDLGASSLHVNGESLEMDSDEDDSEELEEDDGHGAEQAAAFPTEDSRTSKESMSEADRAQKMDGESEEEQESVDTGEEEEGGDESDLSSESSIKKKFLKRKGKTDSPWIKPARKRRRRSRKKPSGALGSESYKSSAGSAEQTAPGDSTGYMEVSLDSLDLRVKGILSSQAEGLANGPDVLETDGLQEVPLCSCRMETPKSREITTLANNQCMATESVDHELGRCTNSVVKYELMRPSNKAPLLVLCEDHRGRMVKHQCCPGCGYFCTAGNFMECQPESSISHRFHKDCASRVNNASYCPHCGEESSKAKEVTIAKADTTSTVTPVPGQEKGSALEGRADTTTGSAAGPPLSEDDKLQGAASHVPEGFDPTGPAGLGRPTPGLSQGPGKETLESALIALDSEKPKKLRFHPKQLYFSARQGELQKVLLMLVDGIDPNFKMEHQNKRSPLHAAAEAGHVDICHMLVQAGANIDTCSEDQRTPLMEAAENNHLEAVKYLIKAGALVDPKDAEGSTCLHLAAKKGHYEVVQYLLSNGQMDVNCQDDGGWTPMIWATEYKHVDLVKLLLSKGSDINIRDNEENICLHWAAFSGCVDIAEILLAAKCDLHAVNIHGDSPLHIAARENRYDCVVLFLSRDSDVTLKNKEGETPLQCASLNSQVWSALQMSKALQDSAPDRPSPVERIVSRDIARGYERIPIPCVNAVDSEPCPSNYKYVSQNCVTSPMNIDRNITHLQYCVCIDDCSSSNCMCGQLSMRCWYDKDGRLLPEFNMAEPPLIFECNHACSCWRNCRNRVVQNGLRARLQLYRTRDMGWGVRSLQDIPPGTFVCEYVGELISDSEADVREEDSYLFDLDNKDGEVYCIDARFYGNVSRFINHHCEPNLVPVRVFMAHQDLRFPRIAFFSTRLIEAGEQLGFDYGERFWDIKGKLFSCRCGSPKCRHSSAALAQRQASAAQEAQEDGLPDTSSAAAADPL

B1: U2SURP (protein, UniProt O15042 2-1029, looked up)
U2 snRNP-associated SURP …: ADKTPGGSQKASSKTRSSDVHSSGSSDAHMDASGPSDSDMPSRTRPKSPRKHNYRNESARESLCDSPHQNLSRPLLENKLKAFSIGKMSTAKRTLSKKEQEELKKKEDEKAAAEIYEEFLAAFEGSDGNKVKTFVRGGVVNAAKEEHETDEKRGKIYKPSSRFADQKNPPNQSSNERPPSLLVIETKKPPLKKGEKEKKKSNLELFKEELKQIQEERDERHKTKGRLSRFEPPQSDSDGQRRSMDAPSRRNRSSGVLDDYAPGSHDVGDPSTTNLYLGNINPQMNEEMLCQEFGRFGPLASVKIMWPRTDEERARERNCGFVAFMNRRDAERALKNLNGKMIMSFEMKLGWGKAVPIPPHPIYIPPSMMEHTLPPPPSGLPFNAQPRERLKNPNAPMLPPPKNKEDFEKTLSQAIVKVVIPTERNLLALIHRMIEFVVREGPMFEAMIMNREINNPMFRFLFENQTPAHVYYRWKLYSILQGDSPTKWRTEDFRMFKNGSFWRPPPLNPYLHGMSEEQETEAFVEEPSKKGALKEEQRDKLEEILRGLTPRKNDIGDAMVFCLNNAEAAEEIVDCITESLSILKTPLPKKIARLYLVSDVLYNSSAKVANASYYRKFFETKLCQIFSDLNATYRTIQGHLQSENFKQRVMTCFRAWEDWAIYPEPFLIKLQNIFLGLVNIIEEKETEDVPDDLDGAPIEEELDGAPLEDVDGIPIDATPIDDLDGVPIKSLDDDLDGVPLDATEDSKKNEPIFKVAPSKWEAVDESELEAQAVTTSKWELFDQHEESEEEENQNQEEESEDEEDTQSSKSEEHHLYSNPIKEEMTESKFSKYSEMSEEKRAKLREIELKVMKFQDELESGKRPKKPGQSFQEQVEHYRDKLLQREKEKELERERERDKKDKEKLESRSKDKKEKDECTPTRKERKRRHSTSPSPSRSSSGRRVKSPSPKSERSERSERSHKESSRSRSSHKDSPRDVSKKAKRSPSGSRTPKRSRRSRSRSPKKSGKKSRSQSRSPHRSHKKSKKNKH
B2: ZC3HAV1 (protein, UniProt Q7Z2W4 2-902, looked up)
Zinc finger CCCH-type …: ADPEVCCFITKILCAHGGRMALDALLQEIALSEPQLCEVLQVAGPDRFVVLETGGEAGITRSVVATTRARVCRRKYCQRPCDNLHLCKLNLLGRCNYSQSERNLCKYSHEVLSEENFKVLKNHELSGLNKEELAVLLLQSDPFFMPEICKSYKGEGRQQICNQQPPCSRLHICDHFTRGNCRFPNCLRSHNLMDRKVLAIMREHGLNPDVVQNIQDICNSKHMQKNPPGPRAPSSHRRNMAYRARSKSRDRFFQGSQEFLASASASAERSCTPSPDQISHRASLEDAPVDDLTRKFTYLGSQDRARPPSGSSKATDLGGTSQAGTSQRFLENGSQEDLLHGNPGSTYLASNSTSAPNWKSLTSWTNDQGARRKTVFSPTLPAARSSLGSLQTPEAVTTRKGTGLLSSDYRIINGKSGTQDIQPGPLFNNNADGVATDITSTRSLNYKSTSSGHREISSPRIQDAGPASRDVQATGRIADDADPRVALVNDSLSDVTSTTSSRVDDHDSEEICLDHLCKGCPLNGSCSKVHFHLPYRWQMLIGKTWTDFEHMETIEKGYCNPGIHLCSVGSYTINFRVMSCDSFPIRRLSTPSSVTKPANSVFTTKWIWYWKNESGTWIQYGEEKDKRKNSNVDSSYLESLYQSCPRGVVPFQAGSRNYELSFQGMIQTNIASKTQKDVIRRPTFVPQWYVQQMKRGPDHQPAKTSSVSLTATFRPQEDFCFLSSKKYKLSEIHHLHPEYVRVSEHFKASMKNFKIEKIKKIENSELLDKFTWKKSQMKEEGKLLFYATSRAYVESICSNNFDSFLHETHENKYGKGIYFAKDAIYSHKNCPYDAKNVVMFVAQVLVGKFTEGNITYTSPPPQFDSCVDTRSNPSVFVIFQKDQVYPQYVIEYTEDKACVIS
B3: PRDX6 (protein, UniProt P30041 2-224, looked up)
Peroxiredoxin-6: PGGLLLGDVAPNFEANTTVGRIRFHDFLGDSWGILFSHPRDFTPVCTTELGRAAKLAPEFAKRNVKLIALSIDSVEDHLAWSKDINAYNCEEPTEKLPFPIIDDRNRELAILLGMLDPAEKDEKGMPVTARVVFVFGPDKKLKLSILYPATTGRNFDEILRVVISLQLTAEKRVATPVDWKDGDSVMVLPTIPEEEAKKLFPKGVFTKELPSGKKYLRYTPQP
B4: CACYBP (protein, UniProt Q9HB71 2-228, looked up)
Calcyclin-binding protein: ASEELQKDLEEVKVLLEKATRKRVRDALTAEKSKIETEIKNKMQQKSQKKAELLDNEKPAAVVAPITTGYTVKISNYGWDQSDKFVKIYITLTGVHQVPTENVQVHFTERSFDLLVKNLNGKSYSMIVNNLLKPISVEGSSKKVKTDTVLILCRKKVENTRWDYLTQVEKECKEKEKPSYDTETDPSEGLMNVLKKIYEDGDDDMKRTINKAWVESREKQAKGDTEF
B5: PDCD2L (protein, UniProt Q9BRP1 2-358, looked up)
Programmed cell death protein …: AAVLKPVLLGLRDAPVHGSPTGPGAWTASKLGGIPDALPTVAAPRPVCQRCGQPLALVVQVYCPLEGSPFHRLLHVFACACPGCSTGGARSWKVFRSQCLQVPEREAQDAQKQGNSLAAEDWCEGADDWGSDTEEGPSPQFTLDFGNDASSAKDVDWTARLQDLRLQDAVLGAAHPVPPGLPLFLPYYICVADEDDYRDFVNLDHAHSLLRDYQQREGIAMDQLLSQSLPNDGDEKYEKTIIKSGDQTFYKFMKRIAACQEQILRYSWSGEPLFLTCPTSEVTELPACSQCGGQRIFEFQLMPALVSMLKSANLGLSVEFGTILVYTCEKSCWPPNHQTPMEEFCIIQEDPDELLFK

Key:
3×MBT domain of L3MBTL1 = assay: Triple SILAC pull-down, 3xMBT/3xMBTD355N ratio (cytoplasmic, nuclear and chromatin fractions of 293T cells); assay type: binding, human; details: SILAC ratio, pull-down 3xMBT vs 3xMBTD355N; for 3xMBT/D355N UNC Heavy: experiment with UNC0638 in heavy SILAC media; for 3xMBT/D355N UNC Light: experiment with UNC0638 in light SILAC media;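 for all read-outs here: proteins quantified with MaxQuant, requiring at least two unique peptides and quantification in both label directions, normalized to the mean of proteins from a digested loading control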
G9a and GLP = molecular target: T1, G9a and GLP; assay: Triple SILAC pull-down after UNC0638 treatment of 293T cells, DMSO/UNC0638 ratio of protein captured by 3×MBT; assay type: cell-based; design: cells were treated for 24 hours with UNC0638 at 2.5 μM or DMSO vehicle control; endogenous in cells; host or cells: HEK 293T; details: for Relative to UNC0638 UNC Heavy / Relative to UNC0638 UNC Light: SILAC ratio DMSO/UNC0638 of protein pulled down with 3xMBT; for Relative to UNC0638 UNC Heavy: UNC0638 in heavy SILAC media; for Relative to UNC0638 UNC Light: UNC0638 in light SILAC media; for Relative to UNC0638 Average: average of UNC Light and UNC Heavy experiments;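 for all read-outs here: mass spectrometry (Q-Exactive) SILAC quantitation, DMSO/UNC0638 ratio computed after subtracting 3×MBTD355N mutant pull-down background, only proteins with at least twofold 3×MBT over mutant signal considered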

Row | Molecule | 3xMBT/D355N UNC Heavy (3×MBT domain of L3MBTL1) | 3xMBT/D355N UNC Light (3×MBT domain of L3MBTL1) | Relative to UNC0638 UNC Heavy (G9a and GLP) | Relative to UNC0638 UNC Light (G9a and GLP) | Relative to UNC0638 Average (G9a and GLP)
1 | B1 | 3.19 log base 2 | 2.58 log base 2 | 0.23 log base 2 | 0.27 log base 2 | 0.25 log base 2
2 | B2 | 2.03 log base 2 | 1.92 log base 2 | −0.16 log base 2 | 0.65 log base 2 | 0.25 log base 2
3 | B3 | 2.01 log base 2 | 2.00 log base 2 | 0.27 log base 2 | 0.23 log base 2 | 0.25 log base 2
4 | B4 | 1.46 log base 2 | 1.48 log base 2 | 0.29 log base 2 | 0.20 log base 2 | 0.25 log base 2
5 | B5 | 2.68 log base 2 | 3.19 log base 2 | 0.22 log base 2 | 0.28 log base 2 | 0.25 log base 2
